Test results taken from patent US20240343803A1 (SHANDONG SIMCERE BIOPHARMACEUTICAL, published 2024).
Residue numbers refer to the chain shown, from its start. Read-outs that look alike come from different tables or passages of the source.

Experiments:
[1] = molecular target: T1, human PVRIG-his (AcroBiosystems, Cat NO. PVG-H52H4) (human, UniProt Q6DKI7 41-171, limits assumed); experiment: SPR (BIAcore), antibody captured on Protein A chip, human PVRIG-His analyte
T1 construct: also called human PVRIG protein
T1 sequence (looked up): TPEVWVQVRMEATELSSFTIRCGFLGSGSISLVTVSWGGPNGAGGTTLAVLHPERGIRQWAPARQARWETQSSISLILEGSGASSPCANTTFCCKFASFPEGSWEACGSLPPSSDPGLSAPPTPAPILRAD
In short: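 Anti-PVRIG antibody captured on a Protein A chip to about 50 RU Rmax, then human PVRIG-His injected at graded concentrations in multi-cycle kinetics (association and dissociation). Chip regenerated with glycine pH 1.5 between cycles; affinity derived from the fitted kinetics.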

[2] = molecular target: T2, Full-length cynomolgus monkey TIGIT on CHO-K1 cells (CHO-K1 cynomolgus monkey TIGIT) (cynomolgus monkey); experiment: FACS; CHO-K1 cynomolgus monkey TIGIT
T2 construct: NCBI XP_015300911.1
T2 sequence (chain, as listed by the source limits assumed): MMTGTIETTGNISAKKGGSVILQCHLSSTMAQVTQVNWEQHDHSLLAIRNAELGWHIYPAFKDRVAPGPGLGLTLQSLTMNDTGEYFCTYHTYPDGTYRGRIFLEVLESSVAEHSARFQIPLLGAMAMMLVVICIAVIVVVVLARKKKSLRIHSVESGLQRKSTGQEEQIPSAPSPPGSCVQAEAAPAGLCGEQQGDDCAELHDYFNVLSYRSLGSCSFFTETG
In short: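 Flow cytometry was used to measure antibody binding to CHO-K1 cells carrying full-length human or cynomolgus monkey TIGIT. Antibodies were serially diluted 3-fold across 12 points from 80 nM, then combined 1:1 with cells held at 2×10⁵/50 μL in 1% BSA-PBS and kept at 4° C for 60 min.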

[3] = molecular target: T3, Fusion protein of extracellular domain of human TIGIT and mouse IgG2a Fc fragment (human TIGIT ECD-mFc) (human); experiment: ELISA, human TIGIT ECD-mFc
T3 construct: The entry includes the signal peptide (limits not recoverable) and the mouse IgG2a Fc
T3 chain: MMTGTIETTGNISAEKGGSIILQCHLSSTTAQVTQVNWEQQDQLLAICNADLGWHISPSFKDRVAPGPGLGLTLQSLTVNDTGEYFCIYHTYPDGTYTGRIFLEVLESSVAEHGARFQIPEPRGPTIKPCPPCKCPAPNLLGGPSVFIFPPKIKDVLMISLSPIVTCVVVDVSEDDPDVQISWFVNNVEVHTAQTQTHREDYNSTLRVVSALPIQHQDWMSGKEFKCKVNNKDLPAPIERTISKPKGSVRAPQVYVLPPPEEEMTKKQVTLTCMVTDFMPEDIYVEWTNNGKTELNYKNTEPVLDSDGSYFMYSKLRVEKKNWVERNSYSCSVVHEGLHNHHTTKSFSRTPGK
In short: (§1)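 Antibodies diluted to 13 nM in 1% BSA, then 3-fold serial dilution for 12 concentrations, incubated with milk-blocked plates at 37° C for 1.5-2 h. Bound antibody detected with HRP-labelled secondary antibody (1:5000, 37° C, 1 h) and TMB, stopped with 1M HCl; OD450 nm read.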

[4] = molecular target: T4, Fusion protein of extracellular domain of human TIGIT and His-tag (human TIGIT ECD-his) (human); experiment: BIAcore
T4 chain: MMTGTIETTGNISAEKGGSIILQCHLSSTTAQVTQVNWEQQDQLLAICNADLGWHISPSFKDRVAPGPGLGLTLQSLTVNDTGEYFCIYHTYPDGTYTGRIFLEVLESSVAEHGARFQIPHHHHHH

[5] = molecular target: T5, Fusion protein of extracellular domain of cynomolgus monkey TIGIT and mouse IgG2a Fc fragment (cynomolgus … (cynomolgus monkey)); experiment: ELISA, cynomolgus monkey TIGIT ECD-mFc
T5 construct: The entry includes the signal peptide (limits not recoverable) and the mouse IgG2a Fc
T5 sequence (chain, as listed by the source limits assumed): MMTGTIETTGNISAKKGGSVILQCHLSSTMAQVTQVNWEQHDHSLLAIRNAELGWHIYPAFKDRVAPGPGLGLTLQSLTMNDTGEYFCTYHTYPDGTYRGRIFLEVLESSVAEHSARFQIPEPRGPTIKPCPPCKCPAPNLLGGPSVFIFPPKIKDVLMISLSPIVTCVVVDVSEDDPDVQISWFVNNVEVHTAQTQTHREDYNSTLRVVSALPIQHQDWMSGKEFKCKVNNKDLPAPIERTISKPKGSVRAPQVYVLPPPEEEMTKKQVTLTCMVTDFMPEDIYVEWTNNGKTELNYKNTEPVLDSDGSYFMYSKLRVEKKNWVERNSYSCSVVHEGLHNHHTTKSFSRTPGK
In short: as §1

[6] = molecular target: T5, Fusion protein of extracellular domain …; experiment: ELISA, cynomolgus monkey TIGIT ECD-mFc; remark: listed apart in the source

B1: PVRIG-A105 (Fc fusion)
chain: EVQLVESGGGLVQAGGSLRLSCAASGRTFDRHTMTWFRQAPGKEREFVATASRIPGDTYYSHSVKGRFTISRDNAKNTVYLQLNNLKPEDTAVYYCAATSAYCSEVDCYEKGSWYDNWGQGIQVTVSS
notes: heavy chain antibody VHH-hinge-CH2-CH3, human IgG1 constant part; not shown: human IgG1 hinge-CH2-CH3
- Kd [1]: 0.841 nM
- koff [1]: 0.000443 s⁻¹
- kon [1]: 527000 M⁻¹ s⁻¹

B2: TIGIT-070-H1L1 (antibody, V domains shown)
VH: EVQLVQSGAEVKKPGASVKVSCKASGYTFTNYYMHWVRQAPGQRLEWMGRIDPDSGGSKYNEKFKSRVTITVDKSASTAYMELSSLRSEDTAVYYCAREGHYGFYSDYWGQGTTVTVSS
VL: DIQMTQSPSSLSASVGDRVTITCRVSENIYSYLAWYQQKPGKSPKLLIYNAKTLAEGVPSRFSGSGSGTDFTLTISSLQPEDFATYYCQHHYGNPLTFGPGTKVDIK
notes: Humanized anti-TIGIT antibody
- EC50 [2]: 1.05 nM
- EC50 [3]: 0.0149 nM
- Kd [4]: 0.0583 nM
- koff [4]: 0.000116 s⁻¹
- kon [4]: 1.98e+06 M⁻¹ s⁻¹
- EC50 [5]: 0.0123 nM
- EC50 [6]: 0.0347 nM

B3: TIGIT-002-H4L3 (antibody, V domains shown)
VH: EVQLQESGPGLVKPSETLSLTCAVSGYSITSDSWNWIRQPPGKKLEYIGYISYSGNTYYNPSLKSRVTISRDTSKNQFSLKLSSVTAADTAVYYCARLDFSNYGGAVDYWGQGTTVTVSS
VL: DIVMTQSPDSLAVSLGERATINCKASQNVRTAVAWYQQKPGQSPKLMIYSASYRYTGVPDRFSGSGSGTDFTLTISSLQAEDVAVYYCQQYYTTPWTFGGGTKVEIK
notes: Humanized anti-TIGIT antibody
- EC50 [2]: 0.723 nM
- EC50 [3]: 0.0138 nM
- Kd [4]: 0.0531 nM
- koff [4]: 0.0003 s⁻¹
- kon [4]: 5.65e+06 M⁻¹ s⁻¹
- EC50 [5]: 0.0189 nM
- EC50 [6]: 0.0427 nM

B4: TIGIT-006-H5L3 (antibody, V domains shown)
VH: B3 VH with I29M, S33Y, N56R, L98G, F100Y, V107M, D108Y, Y109D
VL: DIVMTQSPDSLAVSLGERATINCRASQGVSTTIAWYQQKPGQSPKLLIYSASYRYTGVPRFSGSGSGTDFTLTISSLQAEDVAVYYCQQYYSSPFTFGGGTKVEIK
notes: Humanized anti-TIGIT antibody
- EC50 [2]: 0.922 nM
- EC50 [3]: 0.0092 nM
- Kd [4]: 0.0639 nM
- koff [4]: 0.00016 s⁻¹
- kon [4]: 2.51e+06 M⁻¹ s⁻¹
- EC50 [5]: 0.0132 nM
- EC50 [6]: 0.0406 nM

B5: TIGIT-005-H2L1d (antibody, V domains shown)
VH: EVQLVQSGAEVKKPGASVKVSCKASGYAFTNYLIEWVRQAPGQRLEWMGVINPGSGGTNYKEKFKGRVTITADKSSSTAYMELSSLRSEDTAVYYCARGEYFFFDYWGQGTTVTVSS
VL: B3 VL with N28H, R30S, T31N, Q38H, M47L, Y91H, T93N, W96H
notes: Humanized anti-TIGIT antibody with NG-site mutation in VL
- EC50 [2]: 0.631 nM
- EC50 [3]: 0.0291 nM
- Kd [4]: 0.0896 nM
- koff [4]: 0.000361 s⁻¹
- kon [4]: 4.03e+06 M⁻¹ s⁻¹
- EC50 [5]: 0.0403 nM
- EC50 [6]: 0.0395 nM

B6: PVRIG-A50 (Fc fusion)
chain: EVQLVESGGGLVQPGGSLRLSCAASGFTFSYYDMSWVRQAPGKGLEWVSTINSNGGRTSYVDSVKGRFTISRDNTKNTLYLQMNSLKPEDTAVYYCVEGDPHNFGLENLSLRDFGSWGQGTQVTVSS
notes: heavy chain antibody VHH-hinge-CH2-CH3, human IgG1 constant part; also called PVRIG-50; not shown: human IgG1 hinge-CH2-CH3
- Kd [1]: 0.0254 nM
- koff [1]: 1.29e-05 s⁻¹
- kon [1]: 507000 M⁻¹ s⁻¹

B7: PVRIG-A118 (Fc fusion)
chain: QVQLVESGGGLVQAGGSLRLSCAASETYFDLYVMGWYRQAPGKDRELVATITYTGSIKIVDSVKDRFTISRGDAKNTVSLQMSSLKPEDTAVYFCNADPSGLGRKVYWGQGTQVTVSS
notes: as for B1
- Kd [1]: 0.48 nM
- koff [1]: 0.00114 s⁻¹
- kon [1]: 2.38e+06 M⁻¹ s⁻¹
